Source: the supplement of paper PMC7877785
± gives the uncertainty stated by the source.

Assay: self-splicing fitness, log relative to wild type (ln ratio); higher = more splicing; Tetrahymena group I intron in knt gene, E. coli kanamycin selection, DiMSum; sequences stand for … in CUCUCU…GGAGGGAAAAGUUAUCAGGCAUGCACCUGGUAGCUAGUCUUUAAACCAAUAGAUUGCAUCGGUUUAAAAGGCAAGACCGUCAAAUUGCGGGAAAGGGGUCAACAGCCGUUCAGUACCAAGUCUCAGGGGAAACUUUGAGAUGGCCUUGCAAAGGGUAUGGUAAUAAGCUGACGGACAUGGUCCUAACCACGCAGCCAAGUCCUAAGUCAACAGAUCUUCUGUUGAUAUGGAUGCAGUUCACAGACUAAAUGUCGGUCGGGGAAGAUGUAUUCUUCUCAUAAGAUAUAGUCGGACCUCUCCUUAAUGGGAGCUAGCGGAUGAAGUGAUGCAACACUGGAGCCGCUGGGAACUAAUUUGUAUGCGAAAGUAUAUUGAUUAGUUUUGGAGUACUCGUGGUCG
Method in brief: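 Pooled colonies went to amplicon sequencing on an Illumina HiSeq 2500 after six replicate transformations. The plates were LB agar with 100 μg/mL carbenicillin, 50 μM IPTG and 0.2% rhamnose, with or without 25 μg/mL kanamycin, incubated overnight at 37°C or 30°C. The E. coli BL21(DE3) library had all eight P1ex-region intron nucleotides randomised, the intron placed in the knt kanamycin-resistance gene on pET-22b(+). DiMSum fitness is the error-weighted combination of replicate fold changes, kanamycin against none, normalised to wild type.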

Row | Sequence | self-splicing fitness (ln) (37 °C) | self-splicing fitness (ln) (30 °C)
1 | UCGUAGCAAUAUUACGGAAU | -1.55 ± 0.27 | 
2 | UCGUAGCAAUAUUACGGAGU |  | -2.81 ± 0.24
3 | UCGUAGCAAUAUUACGGCCG | -0.102 ± 0.27 | -1.51 ± 0.36
4 | UCGUAGCAAUAUUACGGGCU | -2.41 ± 0.49 | 
5 | UCGUAGCAAUAUUACGGUUC | -2.07 ± 0.27 | -3.12 ± 0.3
6 | UCGUAGCAAUAUUACGUAGA | 0.461 ± 0.14 | -0.639 ± 0.14
7 | UCUAAGCAAUAUUACGACCA | -0.242 ± 0.19 | -1.73 ± 0.24
8 | UCUAAGCAAUAUUACGACGA | 0.116 ± 0.17 | -0.414 ± 0.2
9 | UCUAAGCAAUAUUACGAUGG | 0.158 ± 0.11 | -0.0699 ± 0.087
10 | UCUAAGCAAUAUUACGAUUG | -2.26 ± 0.17 | -3.4 ± 0.18
11 | UCUAAGCAAUAUUACGCAAA | -2.97 ± 0.2 | -3.34 ± 0.21
12 | UCUAAGCAAUAUUACGCCAC | -3.11 ± 0.35 | -2.44 ± 0.36
13 | UCUAAGCAAUAUUACGCGAG | -1.6 ± 0.17 | -3.69 ± 0.25
14 | UCUAAGCAAUAUUACGCGCG | -1.74 ± 0.18 | -1.87 ± 0.14
15 | UCUAAGCAAUAUUACGCGCU | -1.6 ± 0.27 | -4.34 ± 0.46
16 | UCUAAGCAAUAUUACGCGGG | -1.41 ± 0.18 | -3.14 ± 0.2
17 | UCUAAGCAAUAUUACGCGGU | -1.4 ± 0.2 | -3.76 ± 0.29
18 | UCUAAGCAAUAUUACGCGUG | -1.15 ± 0.11 | -1.43 ± 0.087
19 | UCUAAGCAAUAUUACGGAAG | -1.49 ± 0.17 | -4.81 ± 0.46
20 | UCUAAGCAAUAUUACGGAGA | -1.3 ± 0.18 | -1.6 ± 0.22
21 | UCUAAGCAAUAUUACGGAGC | -1.68 ± 0.37 | 
22 | UCUAAGCAAUAUUACGGCGC | -1.43 ± 0.26 | -1.94 ± 0.34
23 | UCUAAGCAAUAUUACGGCGG | -0.431 ± 0.096 | -0.251 ± 0.076
24 | UCUAAGCAAUAUUACGGCUA | -3.14 ± 0.47 | -1.86 ± 0.27
25 | UCUAAGCAAUAUUACGGGAG | -2.5 ± 0.14 | -3.79 ± 0.16

Row | Sequence | self-splicing fitness (ln) (37 °C) | self-splicing fitness (ln) (30 °C)
26 | UCUAAGCAAUAUUACGGGUU | -2.93 ± 0.19 | -3.97 ± 0.17
27 | UCUAAGCAAUAUUACGGUGG | -0.0857 ± 0.13 | -1.18 ± 0.082
28 | UCUAAGCAAUAUUACGGUUC | -2.39 ± 0.2 | -3.4 ± 0.19
29 | UCUAAGCAAUAUUACGGUUU | -2.56 ± 0.31 | -3.21 ± 0.43
30 | UCUAAGCAAUAUUACGUAAG | -0.333 ± 0.1 | -0.798 ± 0.075
31 | UCUAAGCAAUAUUACGUACU | -1.86 ± 0.21 | -2.18 ± 0.17
32 | UCUAAGCAAUAUUACGUGGA | -3.51 ± 0.39 | -2.82 ± 0.19
33 | UCUAAGCAAUAUUACGUUGU | -1.86 ± 0.15 | -4.19 ± 0.24
34 | UCUCAGCAAUAUUACGAAAU | -2.86 ± 0.32 | 
35 | UCUCAGCAAUAUUACGAACU | -1.34 ± 0.21 | -1.75 ± 0.17
36 | UCUCAGCAAUAUUACGACAU | -1.49 ± 0.034 | -2.714 ± 0.018
37 | UCUCAGCAAUAUUACGACGG | -0.119 ± 0.094 | -0.806 ± 0.071
38 | UCUCAGCAAUAUUACGAGUA | -0.132 ± 0.077 | -1.35 ± 0.066
39 | UCUCAGCAAUAUUACGAUUC | -1.94 ± 0.27 | -2.66 ± 0.28
40 | UCUCAGCAAUAUUACGCCUU | -2.15 ± 0.21 | -3.77 ± 0.33
41 | UCUCAGCAAUAUUACGCGCG | -1.71 ± 0.24 | -2.42 ± 0.21
42 | UCUCAGCAAUAUUACGCGUU | -1.55 ± 0.17 | -2.55 ± 0.14
43 | UCUCAGCAAUAUUACGCUAG | -1.8 ± 0.25 | -2.76 ± 0.25
44 | UCUCAGCAAUAUUACGGAAC |  | -3.48 ± 0.41
45 | UCUCAGCAAUAUUACGGACC | -2.13 ± 0.34 | 
46 | UCUCAGCAAUAUUACGGACG | -0.508 ± 0.13 | -1.84 ± 0.14
47 | UCUCAGCAAUAUUACGGUUA | -0.239 ± 0.091 | -0.801 ± 0.083
48 | UCUCAGCAAUAUUACGUACG | -1.26 ± 0.13 | -2.45 ± 0.14
49 | UCUCAGCAAUAUUACGUUAA | -2.26 ± 0.17 | -2.79 ± 0.19
